Measured values as given in patent publication US20240309093A1 (MINGHUI PHARMACEUTICAL HANGZHOU, published 2024).
Residue numbers refer to the chain shown, from its start. Like-named read-outs stand apart in the source and are kept apart here. Values belong to the binder of their own block, whether it stands above or below them.

Assays:
[1] = molecular target: T1, recombinant human PD-1-his protein (human, UniProt Q15116 25-167); experiment: ELISA; PD-1-his coated 2 µg/mL, anti-human IgG Fc-HRP
T1 construct: also called hPD-1-his; not shown: his tag
Experimental: (§1) The plates were washed three times with PBST. 5% PBS-Milk was added and incubated at room temperature for 2 h. The plates were washed three times with PBST. All the nanobody-Fc fusion proteins were subject to 3-fold gradient dilutions with an initial concentration of 10 μg/mL, added into each well at 30 μL/well, and incubated at room temperature for 1 hr. The plates were washed three times with PBST. The secondary antibody Goat-Anti-Human-IgG-Fc-HRP was diluted at 1:8000, added into each well at 30 μL/well, and incubated at room temperature for 50 min. The plates were washed nine times with PBST. TMB was added into each well at 30 μL/well and developed at room temperature in dark for 1 min to 5 min. 2 M hydrochloric acid was added at 30 μL/well to stop the reaction. The OD450 absorbance value was read by a microplate reader. Graphpad Prism software was used to fit the curve and calculate the EC₅₀ value (see Table 7).

[2] = molecular target: T2, recombinant human PD-1-Fc-Biotin (human, UniProt Q15116 25-167, biotin (site not stated)); experiment: competitive ELISA; PD-L1-mFc coated, 0.5 µg/mL PD-1-Fc-Biotin, streptavidin-HRP
T2 construct: also called antigen protein human PD-1; not shown: Fc
Experimental: (§2) The plates were washed three times with PBST. 5% PBS-Milk was added and incubated at room temperature for 1 hr. All the nanobody-Fc fusion proteins were subject to 3-fold gradient dilutions with an initial concentration of 10 μg/mL, added into each well at 30 μL/well, and incubated at room temperature for 1 hr. […] The well plates were washed with PBST between incubations.

[3] = molecular target: T1, recombinant human PD-1-his protein; experiment: ELISA; PD-1-his coated 2 µg/mL, anti-human IgG Fc-HRP; remark: listed apart in the source
Experimental: as §1, with “PBS-Milk” for “PBS-Milk was added”, “3-folded” for “3-fold”, “dilution” for “dilutions”, “calculate” for “calculate the”, “values.” for “value (see Table 7).”

[4] = molecular target: T2, recombinant human PD-1-Fc-Biotin; experiment: competitive ELISA; PD-L1-mFc coated, 0.5 µg/mL PD-1-Fc-Biotin, streptavidin-HRP; remark: listed apart in the source
Experimental: as §2, with “The” for “The well”

[5] = molecular target: T1, recombinant human PD-1-his protein; experiment: ELISA (first round of humanization); PD-1-his coated 2 µg/mL, anti-human IgG Fc-HRP
Experimental: 96-well ELISA plates were coated with 2 μg/mL of recombinant human PD-1-his antigen protein at 30 μL/well at 4° C. overnight. The plates were washed three times with PBST. 5% PBS-Milk was added and incubated at room temperature for 2 h. The plates were washed three times with PBST. All the nanobody-Fc fusion proteins were subject to 3-fold gradient dilutions with an initial concentration of 10 μg/mL, added into each well at 30 μL/well, and incubated at room temperature for 1 hr. The plates were washed three times with PBST. The secondary antibody Goat-Anti-Human-IgG-Fc-HRP (purchased from Sigma) was diluted at 1:8000, added into each well at 30 μL/well, and incubated at room temperature for 50 min. The plates were washed three times with PBST. TMB (purchased from SurModics) was added into each well at 30 μL/well and developed at room temperature in dark for 1 min to 5 min. 2 M hydrochloric acid was added at 30 μL/well to stop the reaction. The OD450 absorbance value was read by a microplate reader.

T2 sequence (Q15116 25-167 limits assumed): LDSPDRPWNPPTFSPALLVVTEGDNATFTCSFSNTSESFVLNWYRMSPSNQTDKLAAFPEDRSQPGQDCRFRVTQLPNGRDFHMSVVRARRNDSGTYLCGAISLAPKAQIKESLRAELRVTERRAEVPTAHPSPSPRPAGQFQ
T1 sequence (Q15116 25-167 limits assumed): as above

EC50 [3]: 0.158 nM
IC50 [4]: 0.85 nM
B2: MHPD1-A-39 H Fc (Fc fusion)
chain: QVQLVESGGGLVQPGGSLRLSCATSGSRRSIYAMGWFRQAPGKGLEFVAGIGWAYATEYYADSVKGRFTISRDNTKNTLYLQMNSLRAEDTAVYYCAADLDHSGFDYWGQGTLVTVSS
notes: not shown: Fc

EC50 [3]: 0.141 nM
IC50 [4]: 1.54 nM
B4: MHPD1-A-37 H Fc (Fc fusion, not shown: a dimerising Fc or GST; small tags and cut ends)
VHH: B2 chain with S27A, E58T, H102R, S103T

EC50 [3]: 0.242 nM
B7: MHPD1-A-28 H Fc (Fc fusion)
VHH: B2 chain with G26K, S27L, E58Q
notes: not shown: Fc region

EC50 [3]: 0.628 nM
B8: MHPD1-A-33 H Fc (Fc fusion)
VHH: B2 chain with R29S, S30Q, E58T
notes: not shown: Fc region

EC50 [3]: 0.171 nM
IC50 [4]: 1.26 nM
B9: MHPD1-A-49 H Fc (Fc fusion, not shown: a dimerising Fc or GST; small tags and cut ends)
VHH: B2 chain with E58T, H102R, S103V

EC50 [3]: 0.152 nM
IC50 [4]: 1.2 nM
B12: MHPD1-A-23 H Fc (Fc fusion)
VHH: B2 chain with S27T, E58T
notes: not shown: Fc region

EC50 [3]: 0.252 nM
B13: MHPD1-A-46 H Fc (Fc fusion, not shown: a dimerising Fc or GST; small tags and cut ends)
VHH: B2 chain with R28K, R29G, E58T, H102R

EC50 [3]: 0.146 nM
IC50 [4]: 0.944 nM
B17: MHPD1-A-45 H Fc (Fc fusion)
chain: B2 chain with G26H, S27L, E58T
notes: not shown: Fc

EC50 [3]: 0.177 nM
B18: MHPD1-A-24 H Fc (Fc fusion)
chain: B2 chain with R29H, E58T, H102R, S103A
notes: not shown: Fc

EC50 [3]: 0.54 nM
B20: MHPD1-A-27 H Fc (Fc fusion)
VHH: B2 chain with G26K, E58T
notes: not shown: Fc region

EC50 [3]: 0.193 nM
B21: MHPD1-A-42 H Fc (Fc fusion)
chain: B2 chain with R29Q, S30T, E58Q
notes: not shown: Fc

EC50 [3]: 0.421 nM
B23: MHPD1-A-38 H Fc (Fc fusion, not shown: a dimerising Fc or GST; small tags and cut ends)
VHH: B2 chain with S27N, E58T, H102R, S103R

EC50 [3]: 0.198 nM
B24: MHPD1-A-44 H Fc (Fc fusion)
chain: B2 chain with R29T, S30R
notes: not shown: Fc

EC50 [3]: 2.18 nM
B25: MHPD1-A-29 H Fc (Fc fusion)
VHH: B2 chain with R28G, R29G, E58T
notes: not shown: Fc region

EC50 [3]: 0.211 nM
B27: MHPD1-A-25 H Fc (Fc fusion)
chain: B2 chain with S27V, E58T, H102R, S103H
notes: not shown: Fc

EC50 [3]: 0.387 nM
B29: MHPD1-A-43 H Fc (Fc fusion, not shown: a dimerising Fc or GST; small tags and cut ends)
VHH: B2 chain with E58T, H102R, S103A

EC50 [3]: 0.219 nM
B30: MHPD1-A-31 H Fc (Fc fusion)
VHH: B2 chain with I51L, E58T, S103H
notes: not shown: Fc region

EC50 [3]: 0.166 nM
IC50 [4]: 1.08 nM
B33: MHPD1-A-30 H Fc (Fc fusion)
chain: B2 chain with S27V, E58Q, L100I
notes: not shown: Fc

EC50 [3]: 0.824 nM
B35: MHPD1-A-35 H Fc (Fc fusion)
VHH: B2 chain with G26A, S27P, A56G, E58T
notes: not shown: Fc region

EC50 [3]: 0.156 nM
IC50 [4]: 1.72 nM
B37: MHPD1-A-32 H Fc (Fc fusion)
chain: B2 chain with G26K, S27N, E58T
notes: not shown: Fc

EC50 [5]: 0.24 µg/mL
B40: MHPD1-A-H1 Fc (Fc fusion, not shown: a dimerising Fc or GST; small tags and cut ends)
VHH: QVQLVESGGGSVQPGGSLTLSCAASGSDPSIYAMGWFRQAPGKEHEFVAGIGWSAATTYYADSVKGRFGISRDNTKNTVALLMNSLKPEDTAIYYCAADLDHSGFDYWGQGTLVTVSS
notes: First round of humanization of MHPD1-A; also called humanized nanobody-Fc fusion protein

More lines, now with the values behind:

B1: MHPD1-A-2 H Fc (Fc fusion, not shown: a dimerising Fc or GST; small tags and cut ends)
VHH: B2 chain with T24A, S27R, R28F, R29P, A54R, E58T
EC50 [1]: 0.553 nM
IC50 [2]: 0.419 nM

B3: MHPD1-A-15 H Fc (Fc fusion)
chain: B2 chain with S27L, A56S, E58T
notes: not shown: Fc
EC50 [3]: 0.134 nM
IC50 [4]: 0.517 nM

B5: MHPD1-A-20 H Fc (Fc fusion, not shown: a dimerising Fc or GST; small tags and cut ends)
VHH: B2 chain with R29K, E58T
EC50 [3]: 0.175 nM
IC50 [4]: 1.21 nM

B6: MHPD1-A-22 H Fc (Fc fusion)
VHH: B2 chain with E58T, H102R, S103G
notes: not shown: Fc region
EC50 [3]: 0.242 nM

B10: MHPD1-A-16 H Fc (Fc fusion, not shown: a dimerising Fc or GST; small tags and cut ends)
VHH: B2 chain with R29V, E58T
EC50 [3]: 0.187 nM

B11: MHPD1-A-1 H Fc (Fc fusion, not shown: a dimerising Fc or GST; small tags and cut ends)
VHH: B2 chain with T24A, R28D, R29P, Y55W, E58T, H102R
EC50 [1]: 0.613 nM
IC50 [2]: 0.572 nM

B14: MHPD1-A-13 H Fc (Fc fusion)
chain: B2 chain with T24A, G26H, S27A, R28D, R29P, A54N, E58T
notes: not shown: Fc
EC50 [1]: 0.14 nM
IC50 [2]: 0.395 nM

B15: MHPD1-A-21 H Fc (Fc fusion, not shown: a dimerising Fc or GST; small tags and cut ends)
VHH: B2 chain with E58S
EC50 [3]: 0.179 nM
IC50 [4]: 1.61 nM

B16: MHPD1-A-18 H Fc (Fc fusion, not shown: a dimerising Fc or GST; small tags and cut ends)
VHH: B2 chain with R29S, I51L, E58T, S103L
EC50 [3]: 0.178 nM

B19: MHPD1-A-12 H Fc (Fc fusion, not shown: a dimerising Fc or GST; small tags and cut ends)
VHH: B2 chain with T24A, R28D, R29Y, S30A, Y55F, E58T
EC50 [1]: 0.311 nM
IC50 [2]: 0.293 nM

B22: MHPD1-A-11 H Fc (Fc fusion, not shown: a dimerising Fc or GST; small tags and cut ends)
VHH: B2 chain with T24A, R28Q, R29L, A54R, Y55F, E58T
EC50 [1]: 0.222 nM
IC50 [2]: 0.365 nM

B26: MHPD1-A-17 H Fc (Fc fusion, not shown: a dimerising Fc or GST; small tags and cut ends)
VHH: B2 chain with R28I, R29S, E58T
EC50 [3]: 0.196 nM

B28: MHPD1-A-19 H Fc (Fc fusion, not shown: a dimerising Fc or GST; small tags and cut ends)
VHH: B2 chain with R28E, R29V, E58T, H102R, S103R
EC50 [3]: 0.27 nM

B31: MHPD1-A-9 H Fc (Fc fusion, not shown: a dimerising Fc or GST; small tags and cut ends)
VHH: B2 chain with T24A, R28G, R29H, A54S, E58T
EC50 [1]: 0.163 nM
IC50 [2]: 0.256 nM

B32: MHPD1-A-8 H Fc (Fc fusion)
chain: B2 chain with T24A, S27G, R29P, Y55F, E58T
notes: not shown: Fc
EC50 [1]: 0.169 nM
IC50 [2]: 0.323 nM

B34: MHPD1-A-14 H Fc (Fc fusion, not shown: a dimerising Fc or GST; small tags and cut ends)
VHH: B2 chain with T24A, G26S, S27H, R29P, A54R, E58T
EC50 [1]: 1.22 nM
IC50 [2]: 0.852 nM

B36: MHPD1-A-6 H Fc (Fc fusion, not shown: a dimerising Fc or GST; small tags and cut ends)
VHH: B2 chain with T24A, S27R, R29P, A54N, E58T
EC50 [1]: 0.16 nM
IC50 [2]: 0.407 nM

B38: MHPD1-A-5 H Fc (Fc fusion, not shown: a dimerising Fc or GST; small tags and cut ends)
VHH: B2 chain with T24A, R28S, R29L, E58T
EC50 [1]: 0.157 nM
IC50 [2]: 0.306 nM

B39: MHPD1-A-10 H Fc (Fc fusion, not shown: a dimerising Fc or GST; small tags and cut ends)
VHH: B2 chain with T24A, R28D, R29D, S30R, A54R, E58T
EC50 [1]: 0.2 nM
IC50 [2]: 0.287 nM
